# Measurements published in PMC9738047 (International Journal of Molecular Sciences, 2022).
# B1: IL-17A (interleukin-17A) without N-signal sequence, double mutation N68D/C129S (ligand, UniProt Q16552 24-155, looked up)
# chain: GITIPRNPGCPNSEDKNFPRTVMVNLNIHNRNTNTNPKRSSDYYDRSTSPWNLHRNEDPERYPSVIWEAKCRHLGCINADGNVDYHMNSVPIQQEILVLRREPPHSPNSFRLEKILVSVGCTCVTPIVHHVA
# notes: Dimer in the crystal (monomer in the asymmetric unit, molecules A and A*); also called the cytokine
# Target: the molecule itself
# Assay: crystal structure; anti-IL-17A-76 and IL-17A mixed at molar ratio 2.3:1, complex isolated on Superdex G-75; vapor diffusion at 297 K; 2.85 A; molecular replacement with 4HSA and 6QKD
protein,measurement,value
B1,binding result,binds
